Measurements as given in the supplement of paper PMC10065799, “High-throughput profiling of sequence recognition by tyrosine kinases and SH2 domains using bacterial peptide display” (eLife, 2023).
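Note: 11-residue human phosphosite peptides and single-mutation variants displayed on the E. coli surface, counted by deep sequencing, each peptide's frequency after selection divided by its frequency in the unselected input library; frequency after pTyr selection over input frequency; kinase dosed for 20-30% of maximal phosphorylation in three min.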

The sequences below were run against FGFR3 (UniProt P22607) (assay: phosphorylation enrichment, bacterial display (enrichment ratio); higher = better substrate or ligand; peptides without Tyr show the background).
FGFR3, sequence (P22607 whole entry, looked up): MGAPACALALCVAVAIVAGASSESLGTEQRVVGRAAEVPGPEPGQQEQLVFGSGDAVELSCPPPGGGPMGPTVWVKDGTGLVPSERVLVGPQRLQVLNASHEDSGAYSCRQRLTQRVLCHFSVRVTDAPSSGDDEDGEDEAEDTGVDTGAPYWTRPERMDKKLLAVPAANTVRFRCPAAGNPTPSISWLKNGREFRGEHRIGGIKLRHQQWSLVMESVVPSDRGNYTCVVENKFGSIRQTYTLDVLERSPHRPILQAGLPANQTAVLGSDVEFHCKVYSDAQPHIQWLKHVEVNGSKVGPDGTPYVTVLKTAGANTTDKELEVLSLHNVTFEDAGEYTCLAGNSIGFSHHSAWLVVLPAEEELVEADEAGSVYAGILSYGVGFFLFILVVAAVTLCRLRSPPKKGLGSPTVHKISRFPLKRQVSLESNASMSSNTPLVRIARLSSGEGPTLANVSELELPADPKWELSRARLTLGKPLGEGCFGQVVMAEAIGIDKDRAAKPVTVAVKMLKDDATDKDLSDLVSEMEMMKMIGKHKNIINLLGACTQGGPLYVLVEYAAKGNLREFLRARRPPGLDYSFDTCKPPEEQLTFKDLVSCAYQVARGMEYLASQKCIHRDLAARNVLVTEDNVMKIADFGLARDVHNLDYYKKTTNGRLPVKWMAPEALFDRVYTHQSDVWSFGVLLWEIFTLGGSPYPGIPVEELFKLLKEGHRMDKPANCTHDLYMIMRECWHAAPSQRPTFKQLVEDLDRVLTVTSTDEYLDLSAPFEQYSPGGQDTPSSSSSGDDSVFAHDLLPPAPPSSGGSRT
For ASPALYRLDLD [TRIL_Y352], the phosphorylation enrichment was 0.688. Work on LYEDRYLLGPS [ASS1_Y87_T91P] yielded a phosphorylation enrichment of 1.16. FGLPRYRWLTH [TSPAN12_Y143_YF] showed a phosphorylation enrichment of 0.468. For AEQDWYHGAIP [FER_Y461], the phosphorylation enrichment was 1.54. With EGNERYEGYCV [GRIA3_Y451] the phosphorylation enrichment was 0.742. For QAKRKYQEASK [FES_Y156], the phosphorylation enrichment was 0.441. Sequence SDQPDYDSVAS [GIT2_Y392_N387S] has a phosphorylation enrichment of 0.693. For NVADHYRVFKP [ATP6V0D2_Y271_G272R_YF], the phosphorylation enrichment was 0.608. In the case of LARHMYDKEFF [MET_Y1230_D1228H_YF], the phosphorylation enrichment is reported as 0.55. With RMGNLYDIDED [GRIN2A_Y1246] the phosphorylation enrichment was 0.808. SVTCTYSPALF [TP53_Y126_N131Y_YF] showed a phosphorylation enrichment of 1.17. For FSALDYKIFYY [WDPCP_Y210_L205F], the phosphorylation enrichment was 1.18. In the case of PSTFRYERGSR [INPPL1_Y663_P659S_YF], the phosphorylation enrichment is reported as 0.429. RHTRSYDYTEG [FGF7_Y56_M59T] showed a phosphorylation enrichment of 0.546. TGQEEYSAMRD [KRAS_Y64_A59T] showed a phosphorylation enrichment of 0.63. NVKGIYAVGDV [GSR_Y371] was tested, and the phosphorylation enrichment was 0.574. For PFTRNYFVRAV [CYBA_Y87_YF], the phosphorylation enrichment was 0.739. SIKHKYVTALF [KCNH2_Y611_D609H_YF] was tested, and the phosphorylation enrichment was 0.511. RGESFYQDTMN [RARS_Y338_R341T] gave a phosphorylation enrichment of 0.888. In the case of IITVHYVLEES [RYR2_Y4559_A4556T], the phosphorylation enrichment is reported as 0.831. DRKRQYELLKL [KIF4B_Y684] showed a phosphorylation enrichment of 0.576. DRIVNYSRASV [ATP7A_Y1459_I1464V] showed a phosphorylation enrichment of 0.535. For RSRSPYSPVLR [CDK13_Y399], the phosphorylation enrichment was 0.584. With RKLVDYDSARH [BIN1_Y150] the phosphorylation enrichment was 0.668. For ETKGDYEKILV [ANXA1_Y335], the phosphorylation enrichment was 0.682. EIPTQYEAMAS [GFAP_Y242_R239P] was tested, and the phosphorylation enrichment was 0.694. For DDSNPYINVKL [MTHFD1_Y52_L51P], the phosphorylation enrichment was 0.884. Work on AHLTEYLSTHF [UQCRC1_Y219_D215H_YF] yielded a phosphorylation enrichment of 0.577. For LSGVIYVILWK [PMP22_Y153_R157W], the phosphorylation enrichment was 0.652. IVWDSYTTNKV [GNB3_Y85] showed a phosphorylation enrichment of 0.635. Sequence PDGVEYLKNNP [GRIN3A_Y831_D835N] has a phosphorylation enrichment of 0.769. YEEDSYVERSQ [RET_Y905_K907E] showed a phosphorylation enrichment of 0.961. For PRSRSYSSTSI [REPS2_Y462], the phosphorylation enrichment was 0.611.

The sequences below were run on Fer (mouse) in the same assay as above.
ASPALYRLDLD [TRIL_Y352] gave a phosphorylation enrichment of 0.484. Work on LYEDRYLLGPS [ASS1_Y87_T91P] yielded a phosphorylation enrichment of 5.42. FGLPRYRWLTH [TSPAN12_Y143_YF] showed a phosphorylation enrichment of 0.446. Work on AEQDWYHGAIP [FER_Y461] yielded a phosphorylation enrichment of 0.559. EGNERYEGYCV [GRIA3_Y451] was tested, and the phosphorylation enrichment was 0.579. In the case of QAKRKYQEASK [FES_Y156], the phosphorylation enrichment is reported as 0.481. Work on SDQPDYDSVAS [GIT2_Y392_N387S] yielded a phosphorylation enrichment of 0.739. NVADHYRVFKP [ATP6V0D2_Y271_G272R_YF] was tested, and the phosphorylation enrichment was 0.404. LARHMYDKEFF [MET_Y1230_D1228H_YF] was tested, and the phosphorylation enrichment was 0.29. RMGNLYDIDED [GRIN2A_Y1246] was tested, and the phosphorylation enrichment was 0.543. Sequence SVTCTYSPALF [TP53_Y126_N131Y_YF] has a phosphorylation enrichment of 0.727. For FSALDYKIFYY [WDPCP_Y210_L205F], the phosphorylation enrichment was 0.529. PSTFRYERGSR [INPPL1_Y663_P659S_YF] gave a phosphorylation enrichment of 0.352. RHTRSYDYTEG [FGF7_Y56_M59T] showed a phosphorylation enrichment of 0.477. TGQEEYSAMRD [KRAS_Y64_A59T] was tested, and the phosphorylation enrichment was 0.462. For NVKGIYAVGDV [GSR_Y371], the phosphorylation enrichment was 0.572. Work on PFTRNYFVRAV [CYBA_Y87_YF] yielded a phosphorylation enrichment of 0.408. Work on SIKHKYVTALF [KCNH2_Y611_D609H_YF] yielded a phosphorylation enrichment of 0.416. Sequence RGESFYQDTMN [RARS_Y338_R341T] has a phosphorylation enrichment of 1.79. IITVHYVLEES [RYR2_Y4559_A4556T] was tested, and the phosphorylation enrichment was 0.579. DRKRQYELLKL [KIF4B_Y684] gave a phosphorylation enrichment of 0.421. With DRIVNYSRASV [ATP7A_Y1459_I1464V] the phosphorylation enrichment was 0.449. With RSRSPYSPVLR [CDK13_Y399] the phosphorylation enrichment was 0.423. Sequence RKLVDYDSARH [BIN1_Y150] has a phosphorylation enrichment of 0.565. Sequence ETKGDYEKILV [ANXA1_Y335] has a phosphorylation enrichment of 1.04. In the case of EIPTQYEAMAS [GFAP_Y242_R239P], the phosphorylation enrichment is reported as 0.662. Work on DDSNPYINVKL [MTHFD1_Y52_L51P] yielded a phosphorylation enrichment of 1.2. AHLTEYLSTHF [UQCRC1_Y219_D215H_YF] gave a phosphorylation enrichment of 0.44. Work on LSGVIYVILWK [PMP22_Y153_R157W] yielded a phosphorylation enrichment of 0.583. In the case of IVWDSYTTNKV [GNB3_Y85], the phosphorylation enrichment is reported as 0.519. In the case of PDGVEYLKNNP [GRIN3A_Y831_D835N], the phosphorylation enrichment is reported as 0.499. Work on YEEDSYVERSQ [RET_Y905_K907E] yielded a phosphorylation enrichment of 0.572. With PRSRSYSSTSI [REPS2_Y462] the phosphorylation enrichment was 0.57.

The sequences below were run against Fes (UniProt P07332) in the same assay as above.
Fes, sequence (P07332 whole entry, looked up): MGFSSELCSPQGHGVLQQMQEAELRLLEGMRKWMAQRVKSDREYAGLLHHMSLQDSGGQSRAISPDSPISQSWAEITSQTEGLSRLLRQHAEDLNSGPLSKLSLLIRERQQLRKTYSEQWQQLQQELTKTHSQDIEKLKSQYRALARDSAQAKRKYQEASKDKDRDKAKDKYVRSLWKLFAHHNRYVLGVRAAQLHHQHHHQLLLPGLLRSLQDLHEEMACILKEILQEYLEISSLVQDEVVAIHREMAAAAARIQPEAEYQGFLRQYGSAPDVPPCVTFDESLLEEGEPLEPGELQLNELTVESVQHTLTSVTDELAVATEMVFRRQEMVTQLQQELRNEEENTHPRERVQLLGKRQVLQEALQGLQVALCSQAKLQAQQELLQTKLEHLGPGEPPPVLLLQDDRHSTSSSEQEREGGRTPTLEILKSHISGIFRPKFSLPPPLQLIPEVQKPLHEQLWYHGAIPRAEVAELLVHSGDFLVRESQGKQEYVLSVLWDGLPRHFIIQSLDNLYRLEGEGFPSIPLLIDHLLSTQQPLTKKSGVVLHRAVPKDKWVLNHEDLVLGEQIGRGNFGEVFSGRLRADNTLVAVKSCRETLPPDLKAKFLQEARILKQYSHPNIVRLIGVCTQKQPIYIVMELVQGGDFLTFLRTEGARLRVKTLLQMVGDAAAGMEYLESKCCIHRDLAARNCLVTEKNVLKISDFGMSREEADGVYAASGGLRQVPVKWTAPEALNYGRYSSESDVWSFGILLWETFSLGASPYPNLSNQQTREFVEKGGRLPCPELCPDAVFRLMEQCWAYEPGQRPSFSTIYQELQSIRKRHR
ASPALYRLDLD [TRIL_Y352] gave a phosphorylation enrichment of 1.16. In the case of LYEDRYLLGPS [ASS1_Y87_T91P], the phosphorylation enrichment is reported as 1.67. With FGLPRYRWLTH [TSPAN12_Y143_YF] the phosphorylation enrichment was 0.858. AEQDWYHGAIP [FER_Y461] showed a phosphorylation enrichment of 0.921. EGNERYEGYCV [GRIA3_Y451] was tested, and the phosphorylation enrichment was 1.14. In the case of QAKRKYQEASK [FES_Y156], the phosphorylation enrichment is reported as 0.772. SDQPDYDSVAS [GIT2_Y392_N387S] showed a phosphorylation enrichment of 1.27. NVADHYRVFKP [ATP6V0D2_Y271_G272R_YF] was tested, and the phosphorylation enrichment was 0.616. LARHMYDKEFF [MET_Y1230_D1228H_YF] was tested, and the phosphorylation enrichment was 1.08. RMGNLYDIDED [GRIN2A_Y1246] showed a phosphorylation enrichment of 1.32. With SVTCTYSPALF [TP53_Y126_N131Y_YF] the phosphorylation enrichment was 1.74. Work on FSALDYKIFYY [WDPCP_Y210_L205F] yielded a phosphorylation enrichment of 1.45. PSTFRYERGSR [INPPL1_Y663_P659S_YF] gave a phosphorylation enrichment of 0.484. In the case of RHTRSYDYTEG [FGF7_Y56_M59T], the phosphorylation enrichment is reported as 0.918. Work on TGQEEYSAMRD [KRAS_Y64_A59T] yielded a phosphorylation enrichment of 1. Sequence NVKGIYAVGDV [GSR_Y371] has a phosphorylation enrichment of 0.865. PFTRNYFVRAV [CYBA_Y87_YF] gave a phosphorylation enrichment of 0.967. Sequence SIKHKYVTALF [KCNH2_Y611_D609H_YF] has a phosphorylation enrichment of 0.622. RGESFYQDTMN [RARS_Y338_R341T] was tested, and the phosphorylation enrichment was 0.98. In the case of IITVHYVLEES [RYR2_Y4559_A4556T], the phosphorylation enrichment is reported as 1.22. In the case of DRKRQYELLKL [KIF4B_Y684], the phosphorylation enrichment is reported as 0.758. With DRIVNYSRASV [ATP7A_Y1459_I1464V] the phosphorylation enrichment was 0.79. RSRSPYSPVLR [CDK13_Y399] showed a phosphorylation enrichment of 0.854. Work on RKLVDYDSARH [BIN1_Y150] yielded a phosphorylation enrichment of 0.968. ETKGDYEKILV [ANXA1_Y335] was tested, and the phosphorylation enrichment was 1.17. With EIPTQYEAMAS [GFAP_Y242_R239P] the phosphorylation enrichment was 1.04. With DDSNPYINVKL [MTHFD1_Y52_L51P] the phosphorylation enrichment was 1.66. With AHLTEYLSTHF [UQCRC1_Y219_D215H_YF] the phosphorylation enrichment was 0.915. For LSGVIYVILWK [PMP22_Y153_R157W], the phosphorylation enrichment was 1.95. IVWDSYTTNKV [GNB3_Y85] showed a phosphorylation enrichment of 1.2. PDGVEYLKNNP [GRIN3A_Y831_D835N] showed a phosphorylation enrichment of 1.05. Sequence YEEDSYVERSQ [RET_Y905_K907E] has a phosphorylation enrichment of 1.31. PRSRSYSSTSI [REPS2_Y462] gave a phosphorylation enrichment of 1.71.

These sequences were tested against Fyn (UniProt P06241) in the same assay as above.
Fyn, sequence (P06241 whole entry, looked up): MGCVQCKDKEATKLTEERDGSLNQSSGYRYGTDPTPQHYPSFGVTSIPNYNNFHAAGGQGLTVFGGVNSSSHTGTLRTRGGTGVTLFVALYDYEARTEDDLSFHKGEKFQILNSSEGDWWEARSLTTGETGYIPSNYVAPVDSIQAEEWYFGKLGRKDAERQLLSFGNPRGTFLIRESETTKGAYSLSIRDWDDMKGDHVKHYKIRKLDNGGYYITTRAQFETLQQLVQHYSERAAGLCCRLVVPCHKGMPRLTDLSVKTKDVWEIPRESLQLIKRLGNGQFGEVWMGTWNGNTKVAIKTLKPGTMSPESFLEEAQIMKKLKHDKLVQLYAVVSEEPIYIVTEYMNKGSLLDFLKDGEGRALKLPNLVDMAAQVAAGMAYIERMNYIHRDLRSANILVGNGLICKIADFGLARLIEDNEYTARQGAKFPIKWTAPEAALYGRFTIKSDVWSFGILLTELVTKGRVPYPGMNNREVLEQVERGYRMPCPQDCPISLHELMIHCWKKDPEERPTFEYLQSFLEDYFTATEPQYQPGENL
ASPALYRLDLD [TRIL_Y352] gave a phosphorylation enrichment of 0.922. For LYEDRYLLGPS [ASS1_Y87_T91P], the phosphorylation enrichment was 2.3. Work on FGLPRYRWLTH [TSPAN12_Y143_YF] yielded a phosphorylation enrichment of 0.552. For AEQDWYHGAIP [FER_Y461], the phosphorylation enrichment was 0.846. EGNERYEGYCV [GRIA3_Y451] was tested, and the phosphorylation enrichment was 0.544. In the case of QAKRKYQEASK [FES_Y156], the phosphorylation enrichment is reported as 0.544. With SDQPDYDSVAS [GIT2_Y392_N387S] the phosphorylation enrichment was 0.565. NVADHYRVFKP [ATP6V0D2_Y271_G272R_YF] showed a phosphorylation enrichment of 0.391. LARHMYDKEFF [MET_Y1230_D1228H_YF] was tested, and the phosphorylation enrichment was 0.404. RMGNLYDIDED [GRIN2A_Y1246] showed a phosphorylation enrichment of 2.25. Work on SVTCTYSPALF [TP53_Y126_N131Y_YF] yielded a phosphorylation enrichment of 0.837. FSALDYKIFYY [WDPCP_Y210_L205F] showed a phosphorylation enrichment of 0.613. PSTFRYERGSR [INPPL1_Y663_P659S_YF] was tested, and the phosphorylation enrichment was 0.408. In the case of RHTRSYDYTEG [FGF7_Y56_M59T], the phosphorylation enrichment is reported as 0.635. In the case of TGQEEYSAMRD [KRAS_Y64_A59T], the phosphorylation enrichment is reported as 0.519. With NVKGIYAVGDV [GSR_Y371] the phosphorylation enrichment was 4.37. Sequence PFTRNYFVRAV [CYBA_Y87_YF] has a phosphorylation enrichment of 0.533. SIKHKYVTALF [KCNH2_Y611_D609H_YF] gave a phosphorylation enrichment of 0.377. RGESFYQDTMN [RARS_Y338_R341T] gave a phosphorylation enrichment of 0.634. Work on IITVHYVLEES [RYR2_Y4559_A4556T] yielded a phosphorylation enrichment of 0.53. Sequence DRKRQYELLKL [KIF4B_Y684] has a phosphorylation enrichment of 0.392. Work on DRIVNYSRASV [ATP7A_Y1459_I1464V] yielded a phosphorylation enrichment of 0.423. RSRSPYSPVLR [CDK13_Y399] was tested, and the phosphorylation enrichment was 0.551. With RKLVDYDSARH [BIN1_Y150] the phosphorylation enrichment was 0.449. ETKGDYEKILV [ANXA1_Y335] showed a phosphorylation enrichment of 0.506. EIPTQYEAMAS [GFAP_Y242_R239P] was tested, and the phosphorylation enrichment was 0.487. DDSNPYINVKL [MTHFD1_Y52_L51P] showed a phosphorylation enrichment of 0.645. AHLTEYLSTHF [UQCRC1_Y219_D215H_YF] gave a phosphorylation enrichment of 0.471. With LSGVIYVILWK [PMP22_Y153_R157W] the phosphorylation enrichment was 0.304. In the case of IVWDSYTTNKV [GNB3_Y85], the phosphorylation enrichment is reported as 0.546. PDGVEYLKNNP [GRIN3A_Y831_D835N] showed a phosphorylation enrichment of 0.543. In the case of YEEDSYVERSQ [RET_Y905_K907E], the phosphorylation enrichment is reported as 0.519. Sequence PRSRSYSSTSI [REPS2_Y462] has a phosphorylation enrichment of 1.06.
